According to patent US20240279288A1, “APPLICATION OF PLANT JAZ PROTEINS AND DERIVED POLYPEPTIDES IN PREVENTION AND TREATMENT OF HUMAN AND ANIMAL TUMORS” (ANYANG INSTITUTE OF SINO-COTTON INDUSTRY INNOVATION, priority 2021, published 2024):

Key:
[1] = biological target: c-Myc (Homo sapiens, UniProt P01106); experiment: Yeast two hybrid with c-Myc; assay type: binding; design: with the full length of c-Myc and NMYC, respectively; expressed in transfected cells; host or cells: yeast Y2HGold
Excerpt: […]

[2] = biological target: uPAR (Homo sapiens, UniProt Q03405); experiment: Yeast two hybrid with uPAR; assay type: binding; design: the CDS of the above genes was subcloned to pGADT7 (YouBio, VT1639); expressed in transfected cells; host or cells: yeast Y2HGold
Chain of uPAR (Q03405 23-305): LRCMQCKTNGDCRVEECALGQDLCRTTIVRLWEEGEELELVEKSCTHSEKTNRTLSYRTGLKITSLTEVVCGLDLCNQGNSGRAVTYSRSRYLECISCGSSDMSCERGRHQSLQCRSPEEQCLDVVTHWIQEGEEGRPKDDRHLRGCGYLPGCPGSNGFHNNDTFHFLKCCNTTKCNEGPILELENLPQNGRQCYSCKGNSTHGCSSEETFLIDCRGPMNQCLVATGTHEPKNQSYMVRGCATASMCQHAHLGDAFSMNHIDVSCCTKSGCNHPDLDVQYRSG
Excerpt: […]
In order to explore how GhJAZ1 enters cancer cells, we cloned the genes of most tumor surface receptors, including uPAR (NCBI database accession number of NM_002659.4), CCK1R (NP_000721.1), CCK2R (NP_001350481.1), HER2 (NP_004439.2), GRPR (NP_005305.1), MUC1 (NP_001358649.1), VEGFR1 (NP_002010.2), Insulin receptor (NM_000208.4), NTR (XM_011528827.2), PSMA (XM_017017432.1), TFR1 (NM_001128148.3), TFR2 (NM_003227.4), PEPT1 (NM_005073.4), APN (NM_001150.3). […] We detected the interaction of GhJAZ1 with uPA (as the ligand of uPAR, NCBI database accession number of NP_002649.2) and uPAR by yeast two hybrid (the steps of the experiment as Example 3). […]

Chain of c-Myc (P01106 whole entry): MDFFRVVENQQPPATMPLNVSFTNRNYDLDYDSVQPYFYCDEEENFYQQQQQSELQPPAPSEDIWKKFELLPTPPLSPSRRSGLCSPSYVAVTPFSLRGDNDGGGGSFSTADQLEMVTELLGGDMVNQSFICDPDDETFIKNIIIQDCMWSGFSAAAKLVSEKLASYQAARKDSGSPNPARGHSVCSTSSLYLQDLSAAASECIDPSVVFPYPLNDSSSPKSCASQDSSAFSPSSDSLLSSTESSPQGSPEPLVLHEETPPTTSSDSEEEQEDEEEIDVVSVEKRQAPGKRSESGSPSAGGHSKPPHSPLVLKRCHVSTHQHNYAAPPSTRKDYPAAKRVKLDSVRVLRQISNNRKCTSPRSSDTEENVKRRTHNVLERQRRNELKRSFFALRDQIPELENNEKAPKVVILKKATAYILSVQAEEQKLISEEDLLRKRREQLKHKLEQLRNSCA

Row | Molecule | interaction with c-Myc [1] | interaction with uPAR [2]
1 | GhJAZ1 after deletion of NT domain: GhJAZ1 mutant with NT domain deleted, protein sequence SEQ ID No. 83 (protein) MSSCSESTAMKPARSPEANGTPVVPPPTMNLFPLNDKSDDVCGRNGGNPKNLTSMDLFPQQAGLASKDDSPNKLEPQTAPMTIFYGGQVIVFNDFPANKAKEIMLLASNSSSQSNNSFNPIPFTSSIARSPIESSIGVPPTSKPVHPAQRAVPGDLPIARRASLHRFLEKRKDRITAKAPYQINNSAAAPSLSGDNKSWLGLAAQSP | significantly weakened | significantly weakened
2 | GhJAZ1: cotton JAZ1 protein, gene number Gh_A05G0260, sequence SEQ ID No. 4; prokaryotically expressed with His tag, about 30 KD (protein, His tag, prokaryotically expressed with His tag, about 30 KD) MSSCSESTAMKPARSPEKPSFAQTCNLLSQYLKEKGSFGDLSLGMTCNVEANGTPVVPPPTMNLFPLNDKSDDVCGRNGGNPKNLTSMDLFPQQAGLASKDDSPNKLEPQTAPMTIFYGGQVIVFNDFPANKAKEIMLLASNSSSQSNNSFNPIPFTSSIARSPIESSIGVPPTSKPVHPAQRAVPGDLPIARRASLHRFLEKRKDRITAKAPYQINNSAAAPSLSGDNKSWLGLAAQSP | interacted | interacted
